This is an account of results in article PMC9727190, “Characterization and identification of a novel chromosomal class C β-lactamase, LAQ-1, and comparative genomic analysis of a multidrug resistance plasmid in Lelliottia amnigena P13” (Frontiers in Microbiology, 2022).

pIC50: −log10 of the molar value.

One data set concerns the target T1, LAQ-1 (Lelliottia amnigena, UniProt A0A8F5JT47).
T1 construct: gene blaLAQ
Briefly: inhibition of nitrocefin hydrolysis, UV-VIS spectrophotometry. Format: biochemical.

Data set [1] deals with CC(C)(O/N=C(\C(=O)N[C@@H]1C(=O)N2C(C(=O)[O-])=C(C[n+]3ccccc3)CS[C@H]12)c1csc(N)n1)C(=O)O. The experiment in a line: hydrolysis initial rates, UV-VIS spectrophotometry, Michaelis-Menten fit. It is filed as biochemical, Lelliottia amnigena. The note with it: 10 mM phosphate buffer pH 7.0, 37°C. An excerpt: (§1) hydrolysis initial rates, UV-VIS spectrophotometry, Michaelis-Menten fit on LAQ-1

Data set [2] has as its system CC1(C)S[C@@H]2[C@H](NC(=O)[C@H](N)c3ccccc3)C(=O)N2[C@H]1C(=O)O. Described as above. Format: biochemical, Lelliottia amnigena. To be noted: 10 mM phosphate buffer pH 7.0, 37°C.
Description: as §1

Data set [3] relates to CCN1CCN(C(=O)N[C@@H](C(=O)N[C@@H]2C(=O)N3[C@@H]2SC(C)(C)[C@@H]3C(=O)O)c2ccccc2)C(=O)C1=O. Described as above. It is filed as biochemical, Lelliottia amnigena. To be noted: 10 mM phosphate buffer pH 7.0, 37°C.
Description: as §1

Data set [4] has as its system Cc1nnc(SCC2=C(C(=O)O)N3C(=O)[C@@H](NC(=O)Cn4cnnn4)[C@H]3SC2)s1. Described as above. Format: biochemical, Lelliottia amnigena. The note with it: 10 mM phosphate buffer pH 7.0, 37°C.
Description: as §1

Data set [5] deals with CO/N=C(\C(=O)N[C@@H]1C(=O)N2C(C(=O)[O-])=C(C[N+]3(C)CCCC3)CS[C@H]12)c1csc(N)n1. Described as above. Format: biochemical, Lelliottia amnigena. The note with it: 10 mM phosphate buffer pH 7.0, 37°C.
Description: as §1

The subject of data set [6] is CO[C@@]1(NC(=O)Cc2cccs2)C(=O)N2C(C(=O)O)=C(COC(N)=O)CS[C@@H]21. The data set is described as above. To be noted: 10 mM phosphate buffer pH 7.0, 37°C. Format: biochemical, Lelliottia amnigena.
Description: as §1

T1 sequence (A0A8F5JT47 entry or part of it): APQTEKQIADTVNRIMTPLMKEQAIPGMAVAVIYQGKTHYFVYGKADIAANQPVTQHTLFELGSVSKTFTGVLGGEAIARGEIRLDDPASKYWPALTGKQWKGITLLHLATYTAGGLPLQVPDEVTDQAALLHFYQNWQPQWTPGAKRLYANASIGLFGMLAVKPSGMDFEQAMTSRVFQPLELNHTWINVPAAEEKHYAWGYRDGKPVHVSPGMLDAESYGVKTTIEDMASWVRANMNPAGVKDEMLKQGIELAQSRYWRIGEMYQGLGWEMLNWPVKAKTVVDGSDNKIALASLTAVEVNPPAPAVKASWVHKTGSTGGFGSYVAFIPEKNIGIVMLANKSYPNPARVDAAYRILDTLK

`Nc1nc2c(ncn2[C@@H]2O[C@H](COP(=O)(O)O)[C@@H](O)[C@H]2O)c(=O)[nH]1` [GMP] gave a pIC50 at LAQ-1 of 5.58.
On LAQ-1, `NC(=O)[C@@H]1CC[C@@H]2CN1C(=O)N2OS(=O)(=O)O` [avibactam] had a pIC50 of 8.84. Compared with the last molecule, the pIC50 is 3.26 log units higher.
Take LAQ-1 (Lelliottia amnigena): the Km in data set [1] was found to be 140 µM; in data set [2] it was 436.1 µM; in data set [3], 87.56 µM; in data set [4], 645 µM; in data set [5], 57.05 µM; in data set [6], 65.4 µM. For the same molecule, the catalytic constant (kcat) was determined as 642 s⁻¹ in data set [1]; 9140 s⁻¹ in data set [2]; 9430 s⁻¹ in data set [3]; 25700 s⁻¹ in data set [4]; 467 s⁻¹ in data set [5]; 1110 s⁻¹ in data set [6]. In addition, the kcat/Km in data set [1] stood at 4.58e+06 M⁻¹ s⁻¹; in data set [2], 2.1e+07 M⁻¹ s⁻¹; in data set [3], 1.08e+08 M⁻¹ s⁻¹; in data set [4], 3.99e+07 M⁻¹ s⁻¹; in data set [5], 8.18e+06 M⁻¹ s⁻¹; in data set [6] it was 1.69e+07 M⁻¹ s⁻¹.

The pIC50 is the IC50 on a negative log10 scale, so that one unit is a factor of ten. The Km is the concentration of substrate that gives half-maximal velocity. The term kcat denotes the number of substrate molecules converted per active site and unit of time at saturation. What is called kcat/Km is the second-order rate constant that governs catalysis at low substrate concentration.
